Measurements reported in article doi:10.1101/2022.05.21.492554 (2022).

Tests used:
[1] = molecular target: T1, BA.4/5 RBD with BAP-His tag, biotinylated (SARS-CoV-2 Omicron BA.4/5, L452R | F486V | T478K | E484A | N501Y, biotin (on the BAP tag, by co-expressed ER-localized biotin ligase BirA)); assay: SPR; conditions: both partners purified
[2] = molecular target: T1, BA.4/5 RBD with BAP-His tag, …; assay: cell-based or functional assay

B1: Omi-32 Fab (Fab, V domains shown)
VH: EVQLVESGGGVVQPGRSLRLSCAASGFTFSNYGMHWVRQAPGKGLEWVAVYWYDGGNKFYADSVKGRFTISRDNSKNTLYLQMNSLRVEDTAVYYCARDTAPPDYWGQGTLVTVSS
VL: AIRMTQSPGTLSLSPGERATLSCRASQSISSSFLAWYQQKPGQAPRLLIYGASSRATGIPDRFSGSGSGTDFTLTISRLEPEDFAVYYCQQYGTSPRLTFGGGTKVDIK
fold increase in on-rate against BA.2 RBD [1]: 5 fold
pseudoviral neutralization of BA.4/5, fold enhancement compared to BA.2 [2]: 77 fold
